Literature values as cited in paper PMC10364474.

Molecular target: integrin α5β1 (Homo sapiens) (UniProt P08648)
UniProt P08648, sequence (P08648 42-995, chain 1 of 2): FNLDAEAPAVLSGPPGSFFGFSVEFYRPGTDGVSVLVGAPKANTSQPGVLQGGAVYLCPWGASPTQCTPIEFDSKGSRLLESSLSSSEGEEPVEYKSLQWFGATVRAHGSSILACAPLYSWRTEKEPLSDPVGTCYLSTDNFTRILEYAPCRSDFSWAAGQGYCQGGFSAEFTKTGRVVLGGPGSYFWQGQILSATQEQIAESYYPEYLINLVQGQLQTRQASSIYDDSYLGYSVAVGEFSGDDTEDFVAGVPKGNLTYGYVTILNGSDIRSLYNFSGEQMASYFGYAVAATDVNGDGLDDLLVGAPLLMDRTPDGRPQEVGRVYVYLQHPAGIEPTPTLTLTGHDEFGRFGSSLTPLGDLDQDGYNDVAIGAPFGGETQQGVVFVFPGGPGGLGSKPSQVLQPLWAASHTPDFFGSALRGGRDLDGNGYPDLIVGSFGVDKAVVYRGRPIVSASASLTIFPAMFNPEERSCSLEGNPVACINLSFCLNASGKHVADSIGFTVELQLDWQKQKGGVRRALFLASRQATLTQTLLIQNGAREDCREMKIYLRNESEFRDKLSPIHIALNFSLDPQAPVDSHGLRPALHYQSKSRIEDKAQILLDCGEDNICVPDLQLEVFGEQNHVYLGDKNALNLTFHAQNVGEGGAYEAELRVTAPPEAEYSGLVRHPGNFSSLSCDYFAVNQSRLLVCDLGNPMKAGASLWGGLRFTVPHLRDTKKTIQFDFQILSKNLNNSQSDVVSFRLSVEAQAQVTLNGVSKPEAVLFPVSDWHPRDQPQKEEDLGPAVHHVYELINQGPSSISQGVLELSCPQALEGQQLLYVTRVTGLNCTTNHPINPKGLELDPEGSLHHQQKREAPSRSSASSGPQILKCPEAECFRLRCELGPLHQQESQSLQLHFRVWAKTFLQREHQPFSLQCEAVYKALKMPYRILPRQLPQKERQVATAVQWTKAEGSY
UniProt P08648, sequence (P05556 21-728, chain 2 of 2, further chain): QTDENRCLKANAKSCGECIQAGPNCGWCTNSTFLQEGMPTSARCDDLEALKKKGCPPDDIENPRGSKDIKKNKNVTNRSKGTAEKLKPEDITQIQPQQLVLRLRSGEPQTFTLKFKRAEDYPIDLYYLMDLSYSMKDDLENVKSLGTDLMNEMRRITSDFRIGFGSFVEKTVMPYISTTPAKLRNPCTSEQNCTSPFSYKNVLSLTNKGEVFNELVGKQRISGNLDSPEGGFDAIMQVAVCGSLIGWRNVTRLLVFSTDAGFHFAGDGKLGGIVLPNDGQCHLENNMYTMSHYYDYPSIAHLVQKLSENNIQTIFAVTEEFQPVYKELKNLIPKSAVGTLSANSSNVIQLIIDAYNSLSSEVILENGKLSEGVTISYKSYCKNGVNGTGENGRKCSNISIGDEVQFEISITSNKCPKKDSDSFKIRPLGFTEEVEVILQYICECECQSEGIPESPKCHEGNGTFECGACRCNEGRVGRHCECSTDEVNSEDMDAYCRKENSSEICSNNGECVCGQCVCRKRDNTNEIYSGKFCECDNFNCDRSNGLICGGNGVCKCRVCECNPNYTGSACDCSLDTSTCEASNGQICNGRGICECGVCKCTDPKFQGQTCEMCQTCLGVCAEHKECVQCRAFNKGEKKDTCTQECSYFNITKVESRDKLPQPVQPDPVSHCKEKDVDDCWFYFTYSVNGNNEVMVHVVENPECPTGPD

Kd: 65 nM
Substance: Fibrinogen alpha chain RGD 572-574 (from UniProt P02671)
